Laboratory results reported in the nanobody polyreactivity screen of Harvey et al. (2022).

Assay: yeast display, Sf9 membrane polyspecificity reagent, FACS + sequencing; frameworks hold sequencing errors
Procedure, shortened: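 Nanobodies from a synthetic yeast display library (Saccharomyces cerevisiae BJ5465), induced 36–48 hours with galactose, were stained 1 hour at 4 °C with 10% biotinylated, detergent-solubilized Sf9 membrane reagent, enriched on streptavidin microbeads, then FACS-sorted. Anti-HA (expression) and streptavidin (reagent binding) fluorescence set low and high (top ~1%) gates. Polyreactivity labels come from the gate of origin. Genes were colony-PCR amplified, MiSeq 2 × 250 sequenced and filtered by CDR length.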

Row | Sequence | polyreactivity (PSR sort gate)
1 | QVQLVESGGGLVQAGGSLRLSCAASGFTFVINDMGWYRQAPGKERELVADITSGGDTYYADSVKGRFTISRDNAKNTVYLQLNSLKPEDTAVYYCAADIYPDWIYLLYGYWGQGTQVTVSS | low polyreactivity
2 | QVQLVESGGGLVQAGGSLRLSCAASGFTFVNYVMGWYRQAPGKERELVAAISRSGGSTYYADSVKGRFTISRDNAKNTVYLQMNSLKPEDTAVYYCAARWFYRAGFNYWGQGTQVTVSS | high polyreactivity
3 | QVQLVESGGGLVQAGGSLRLSCAASGFTFVPYAMGWYIQAPGKERELVAAISSRGDSTYYADSVKGRFTISRDNAKNTVYLQMNSLKPEDTAVYYCNARTTPHMDYWGQGTQVTVSS | low polyreactivity
4 | QVQLVESGGGLVQAGGSLRLSCAASGFTFVPYAMGWYRQAPGKERELVAAISYSGGSRYYADSVKGRFTISRDNAKNTVYLQMNSLKPEDTAVYYCAALRWYHYGYWGQGTQVTVSA | high polyreactivity
5 | QVQLVESGGGLVQAGGSLRLSCAASGFTFVQYAMGWYRQAPGKERELVATISKSGGITYYADSVKGRFKISRDYAKNTVYLQMNSLKPEDTAVYYCAASWYYSSRGFHATWGHDYWGQGTQVTVSS | low polyreactivity
6 | QVQLVESGGGLVQAGGSLRLSCAASGFTFVRNAMGWYRQAPGKEREFVAAITWTGGSTSYADSVKGRFTISRDNAMITVYLQMNSLKPEDTAVYYCDAVGYGYGFEYWGQGTQVTVSA | high polyreactivity
7 | QVQLVESGGGLVQAGGSLRLSCAASGFTFVRYAMGWYRQAPGKEREFVAGITRSGGSTYYADSVKGRFTISRDNAKNTVYLQMNSLKPEDTAVYYCNRAYYSYHDQPYEYWGQGTQVSVSS | high polyreactivity
8 | QVQLVESGGGLVQAGGSLRLSCAASGFTFVRYAMGWYRQAPGKERELVAAISSSGSSTYYADSVKGRFTISRDPVKNTVYLQMNSLIPEDTAVYYFNARAGGGEDYWGQGTQVTVSS | low polyreactivity
9 | QVQLVESGGGLVQAGGSLRLSCAASGFTFVRYAMGWYRQAPGKERELVAGISRRGGSTYYADSVKGRFTISRDNAKNTVYLQMNSLKPEDTAVYYCAAKPIYYSRGYYWGQGTQVTVSS | high polyreactivity
10 | QVQLVESGGGLVQAGGSLRLSCAASGFTFVRYTMGWYRKAPGKERELVAAITASGDRTYYADSVKGRFTISRDNAKNTVYLQMNSLKPEDTAVYYCAKEYWGVTPTYYYWGQGTQVTVSS | high polyreactivity
11 | QVQLVESGGGLVQAGGSLRLSCAASGFTFVRYTMGWYRQAPGKERELVAAITASGDRTYYADSVKGRFTISRDNAKNTVYLQMNSLKPEDTAVYYCAARVWRTVTRSKYGYWGQGTQVTVSS | high polyreactivity
12 | QVQLVESGGGLVQAGGSLRLSCAASGFTFVSYAMGWSRQAPGKERELVAVISKSGSRTSYAESVKGRFTISRDNAKNTVYLQMNSLKPEDTAVYYCAVYYTRIGPRYDYWGQGTQVTVSS | high polyreactivity
13 | QVQLVESGGGLVQAGGSLRLSCAASGFTFVSYAMGWYRQAPGKERELVASITWTGGSTYYADSVKGRFTISRDNAKNTVYLQMNSLKPEDTAVYYGAAQQFYSGILGRYYWGQGTQVTVSS | low polyreactivity
14 | QVQLVESGGGLVQAGGSLRLSCAASGFTFVTNAMGWYRQAPGKERELVAAISSSGARTYYADSVKGRFTISRDNAKNTVYLQMNSLKPEDTAVYYCAVYYYDFTSTEYGYWGQGTQVTVSS | high polyreactivity
15 | QVQLVESGGGLVQAGGSLRLSCAASGFTFVVYAMGWYRQAPGKERELVAAISARGGRTYYADSVKGRFTISRDNAKNTVYLQMNSLKPEDTAVYYCAATNQRQTRYDYWGQGTQVTVSS | high polyreactivity
16 | QVQLVESGGGLVQAGGSLRLSCAASGFTFVYNAMGWYRQAPGKERELVAAITSGGNTYYADSVKGRFTISRDNAKNTVYLQMNSLKPEDTAVYYCAKRGYVRYYAYDYWGQGTQVTVSS | high polyreactivity
17 | QVQLVESGGGLVQAGGSLRLSCAASGFTFVYNAMGWYRQAPGKERELVAAITSGGNTYYADSVKGRFTISRDNAKNTVYLQMNSLKPEDTAVYYCAKVQNGQWSTSRVPGDYQYNYWGQGTQVTVSS | high polyreactivity
18 | QVQLVESGGGLVQAGGSLRLSCAASGFTFVYYAMGWYRQAPGKERELVAAISSGGRTYYADSVKGRFTISRDNAKNTVYLQMNSLKPEDTAGYYCNKKVGSYYRSYYYWGQGTQVTVSS | high polyreactivity
19 | QVQLVESGGGLVQAGGSLRLSCAASGFTFVYYAMVWYRQAPGKERELVAAISRSGGSTYYADSVKGRFTISRDNAKNTVYLQMNSLKPEDTAVYYCAADIVARYPYDYAMYYWGQGTQVTVSS | high polyreactivity
20 | QVQLVESGGGLVQAGGSLRLSCAASGFTFVYYNMGWYRQAPGKERELVAAITQSGGRTYYADSVKGRFTISRDNAKNTVYLQMNCLKPEDTAVYYCAARLWGKRDYRMDYWGQGSQVTVSS | high polyreactivity
21 | QVQLVESGGGLVQAGGSLRLSCAASGFTFVYYVMGWYRQAPGKERELVAAIRSGDGNTHYADTEKGRFTISRDNAKNTVYLQMNSLKPEDTAVYYCAASSRTFGYKYFYWGQGTQVTVSS | high polyreactivity
22 | QVQLVESGGGLVQAGGSLRLSCAASGFTFWDYAMGWYRQAPGKESELVAAISDNDGSTDYADYVKGRFTISRDNAKNTVYLPMNSLKPEDTAVYYCNGEIELPSKEGDYWGQGTQVTVSS | low polyreactivity

Row | Sequence | polyreactivity (PSR sort gate)
23 | QVQLVESGGGLVQAGGSLRLSCAASGFTFWFNAMGWYRQAPGKEREFVATISYSGASTYYADSVKGRFTISRDNAKNTVYLQMNSLKPEDTAVYYCAAANYDFYAFDSTYRYNYWGQGTQVTVSS | low polyreactivity
24 | QVQLVESGGGLVQAGGSLRLSCAASGFTFWFYAMGWYRQAPGKERELVAAISWDGSRTYYADSVKGRFTISRDHAKNTVYLQMNSLKPEDTAVYYCAAESEDSNYNYWGQGTQVTVSS | high polyreactivity
25 | QVQLVESGGGLVQAGGSLRLSCAASGFTFWGYGMGWYRQAPGKERELVAAISGSGGSTYYADSVKGRFTISRDNAKNTVYLQMNSLKPEDTAVYYCNKATQFYQWGASPYYPRRDYWGQGTQVTVSS | low polyreactivity
26 | QVQLVESGGGLVQAGGSLRLSCAASGFTFWLYAMGCYRQAPGKEREFVAAISTSGGSTYADSVKGRFTISRDNAKNTVYLQMNSLKPEDTAVYYCNAGYLLYYDYHLFYWGQGTQVTVSS | low polyreactivity
27 | QVQLVESGGGLVQAGGSLRLSCAASGFTFWLYAMGSYRQAPGKEREFVAAISTSGGYTYADSVKGRFTISRDNAKNTVYLQMNSLKPEDTAVYYCAVDGLPPKDALHLYYYWGQGTQVTVSS | low polyreactivity
28 | QVQLVESGGGLVQAGGSLRLSCAASGFTFWNNAMGWYRQAPGKERELVAAISWSGGSTYYADSVKGRFTISRDNAKNTFDLQMNRLKPEDSAVYYCAAGDGPWLPRVHYGGYGYWGQGTQVTVSS | high polyreactivity
29 | QVQLVESGGGLVQAGGSLRLSCAASGFTFWPNAMGWYRQAPGKERELVAAINWSGGSTYYADSVKGRFTISRDNAKYTVSLQKNSLKPEDTAVYYCAADYVTNITFDGFNKYDYWGQGTQVTVSS | low polyreactivity
30 | QVQLVESGGGLVQAGGSLRLSCAASGFTFWRYAMGRYRQAPGKERELVAGISSGGSTNYADSVKGRFTISRDNAKNTVYLQMNSLKPEDTAVYYCAARGNYFYGIYGYWGQGTQVTVSS | low polyreactivity
31 | QVQLVESGGGLVQAGGSLRLSCAASGFTFWTYAMGWYRQAPGKERELVAAIDSGGSTYYADSVKGRFTISRDNAKNTVYLQMNSVKPEDTAVYYCNAGPSVTSGYDYDYWGQGTQVTVSS | low polyreactivity
32 | QVQLVESGGGLVQAGGSLRLSCAASGFTFWYNAMGWYRQAPGKERELVAAITSAGSTSYADSVKGRFTISRDNAKNTVYLQMNSLKPEDTAVYYCNADLASSFSRANKYDYWGQGTQVTVSS | low polyreactivity
33 | QVQLVESGGGLVQAGGSLRLSCAASGFTFWYYAMGWYRQAPGKEREMVAAISRSGTSTYYADSVKGRFTISRDNAKNTVYLQMNSLKPEDSAVYYCNVLRVKSITYLMDYWGQGTQVTVSS | high polyreactivity
34 | QVQLVESGGGLVQAGGSLRLSCAASGFTFYANAMGWYRQAPGKERELVAAISRGVSTTYADSVKGRFTISRDNAKNTVYLQMNRLKPEDTAVYYCAADGNVIAQGYDYWGQGTQVTVSS | low polyreactivity
35 | QVQLVESGGGLVQAGGSLRLSCAASGFTFYANAMGWYRQAPGKERELVAAITSSGGSTYYADSVKGRFTISRDNAKNTVYLQMNSLKPEDSAVYYCNSLRLYSIPRLYGYWGQGTQVTVSS | high polyreactivity
36 | QVQLVESGGGLVQAGGSLRLSCAASGFTFYAYAMGWYRPAPGKERELVAALTGRGGSTYYADSVKGRFTISRDNAKNTVYLQMNSLKPEDTAVYYCNKVKQSDKFNNFSNDYWGQGTQVTVSS | high polyreactivity
37 | QVQLVESGGGLVQAGGSLRLSCAASGFTFYAYAMGWYRQAPGKERELVAVITGGGSTYYADSVKGRFTISRDNAKNTVYLQMNSLKPEDTAVYYCAATYRGWLVGNGVWYWYYYWGQGTQVTVSS | high polyreactivity
38 | QVQLVESGGGLVQAGGSLRLSCAASGFTFYDYAMGWYRQAPGKERELVAAISWDGDRTYYADSVNGRFTISRDNAKNTVYLQMNSLKPEDTAVYYCNAEYSSFSDVQKDSDMDYWGQGTQVTVSS | low polyreactivity
39 | QVQLVESGGGLVQAGGSLRLSCAASGFTFYFYAMGWYRQAPGKERELVAAISRGGSTTYADSVKGRFTISRDNAKNTVYLQMNSLKPEDTAVYYCAKDRRRWYYTRDYWGQGTQVTVSS | low polyreactivity
40 | QVQLVESGGGLVQAGGSLRLSCAASGFTFYGNAMGWYRQAPGKERELVAAISLSDGYADSVKGRFTISRDNAKNTVYLLMNSLKPEDTAVYYCAKDRTDSKRREHDYWGQGTQVTVSS | low polyreactivity
41 | QVQLVESGGGLVQAGGSLRLSCAASGFTFYGYAMGWYRQAPGKDRELVARITVRGSTTYYADSVKGRFTISRDNAKNTVYLQMNSLKPEDTAFYYCNASWVYSRFRPLDYDLDYWGQGTQVTVSS | low polyreactivity
42 | QVQLVESGGGLVQAGGSLRLSCAASGFTFYGYAMGWYRQAPGKERELVAAITSGGSTNYADSVKGRFTISRDNAKNTVYLQMNSLKPEDTAVYYCAASPSYWYLYVNYSYDYWGQGTQVTVSS | high polyreactivity
43 | QVQLVESGGGLVQAGGSLRLSCAASGFTFYGYGMGWYRPAPGKERELVAVITSGGSTKYADSVKGRFTISRDNAKNTVYLQMNSLKPEDTAVYYCNVVGGRYLYSAYDYWGQGTQVTVSS | low polyreactivity
